Experiment: soluble on expression in E. coli; label from the status in PepcDB or PDB records

| Sequence | soluble on expression in E. coli |
| --- | --- |
| RSARPPGPRVSRARCLPGLIAEQLLQQAARGQDRQQQLQRDPQKALCDLHPSWKEIQALQCRPGHPPEQPWETSQMPESQVKGSRRPKFHARPEDYAVSQPNRDIQEKREASLEESPVALGESASVPQVSETVPASQPLSKKTSSQSNSSSEGSMWATVPSSPTLDRDTASEVDDLEPDSVSLALEMGGSAAPAAPKLKIFMAQYNYNPFEGPNDHPEGELPLTAGDYIYIFGDMDEDGFYEGELDDGRRGLVPSNFVEQIPDSYIPGCLPAKSPDLGPSQLPAGQDEALEEDSLLSGKAQGVVDRGLCQMVRVGSKTEVATEILDTKTEACQLGLLQSMGKQGLSRPLLGTKGVLRMAPMQLHLQNVTATSANITWVYSSHRHPHVVYLDDREHALTPAGVSCYTFQGLCPGTHYRARVEVRLPRDLLQVYWGTMSSTVTFDTLLAGPPYPPLDVLVERHASPGVLVVSWLPVTIDSAGSSNGVQVTGYAVYADGLKVCEVADATAGSTLLEFSQLQVPLTWQKVSVRTMSLCGESLDSVPAQIPEDFFMCHRWPETPPFSYTCGDPSTYRVTFPVCPQKLSLAPPSAKASPHNPGSCGEPQAKFLEAFFEEPPRRQSPVSNLGSEGECPSSGAGSQAQELAEAWEGCRKDLLFQKSPQNHRPPSVSDQPGEKENCSQHMGTSKSPAPGFIHLRTECGPRKEPCQEKAALERVLRQKQDAQGFTPPQLGASQQYASDFHNVLKEEQEALCLDLWGTERREERREPEPHSRQGQALGVKRGCQLHEPSSALCPAPSAKVIKMPRGGPQQLGTGANTPARVFVALSDYNPLVMSANLKAAEEELVFQKKQLLRVWGSQDTHDFYLSECNRQVGNIPGCLVAEMEVGTEQTDRRWRSPAQGHLPSVAHLEDFQGLTIPQGSSLVLQGNSKRLPLWTPKIMIAALDYDPGDGQMGGQGKGRLALRAGDVVMVYGPMDDQGFYYGELGGHRGLVPAHLLDHMSLHGH | soluble |
| MEDVNDLYTMALGEFYAPAPSTSSIKKPAKVPEDQPSTSSAPPTTALFRQLLIGSRSQIERLKKENEELKTKLKHATSSGGVVICPNCTHHFKDRQCPMRPRAMKKMRARNCVELEFGNLEDLEMWLYLNQLETNNDGMPTVMNVKKATNCPEKSLKESGSLLPELVEKKREEKRQQEDQKAVVLEKRKPVTQKVQDHLKRRSKSPIGRGKDQSDKDIISNKKRKLNRQSKEEIDERSKIAKKAPISQRVQFPRMPAPQAPDAVASKVREQKPVDITPHPRPSASRNSESQKPVASKIQEKKTEVRTKSSPTNPIVNSKQPSQKKPADLTPHPKRPPITPETLPSRNSEIQKPAASKIQEKKTEVIARSQKSEASTKIAQKPSPTNPTVNFKQPSQKPADLTPKPITLASKSPITRSSEVSTEPSTKPKRAPIVWDDKPKDSTAKELPKELPKAKSHFEFKVKPIEKKDASPPKTTSTSSASPPNPDPAMKQKYKFVPTSKKQKLTETKNKDQKSTINESPVECQNSGQNEASNPTKLKDQELNKHVVPKNPEAIETPDERQESVQKSNEASATSSTKPSDPVETPSDEVDPQETQWKVYSVKQSRPVLDHIYKFALARQSLKRHWNDKMIVLNGDVPQEKVEESKPLSIAESLKRIGVSVEGIAVLQKQLKASAPEPPVLSTTVDDEDALGEFFPDLAKRKTSEIRPVSAESLWSVTDREEEELKILVREDSVVPPSGDCLMDVEAYEITEDLESQTYEASQSDWKEFCLEDVDDDVDETLRERKLSEMEKSAENLDENMDWIENLEELGNDDEQEEEEEEDQEQEQEQVAPSRSISVPLEMKNDFVLSDEDDPVSPVTSTPRKEDFNDDLSGCLEEDEEDTENLLPQAKDDSFIDELDWNYGTDYEEEEVEEAEVVVEEKDNSGSDHDATLEDGEISENDDGEDEKKEEEPKKPIRERTKFMITEDQLGPKTDEEEDEPPEIHRAPPRKRKINYNRQKGSEDNRHRNYRKRDTRPATYLSLLKRRNS | not soluble |
| SHKLPSGPPMHHFNSRYSETGCVGMQIRDAHEENPESILDEHVQRVMKTPGCQSPGTGRHSPKSRSPDGH | soluble |
| MGSDKIHHHHHHMTVPPRVSAGEVFQHFRGTSPLTRARLSALTGLSRAATTDRMRTLASRGLIGPANEAPSTGGRPSAQFRLMPNSGAVMSVLLGASEAKVQAFDLSGQPLSAAKPVETVRGGYAAILDSCLASAYSLLDSMDDISGQLVATGVVLDEGAPDLDWPEYFAGRPVVVDSALGAMATAEALSRTPRPQNMLFLDVGKTIGCAVLVHGRTMGGFRTSKEAFGHTPGKGTPTLPCACGIMNCLQAIAGEEAIIAGLSSDLADEPDAISGAVRRSDAAAVSALRQAGRDIGDTLLGSIHLLQPEFITVRTRWPGAADFLLAGLREAIYASGVPAVTENLVLASSTTGSPATGIALRALDAGLAVESVDRLLSAPPNLSGQRNYWPAPLKSIDRQRHAS | not soluble |
| AHHHHHHGSSKNYKKHQAYIAGRDKMKVAVITGASRGIGEAIAKALAEDGYSLALGARSVDRLEKIAKELSEKHGVEVFYDYLDVSKPESVEEFARKTLAHFGDVDVVVANAGLGYFGRLEELTEEQFHEMIEVNLLGVWRTIKAFLNSLKRTGGVAIVVTSDVSARLLPYGGGYVATKWAARALVRTFQIENPDVRFFELRPGAVDTYFGGSKAGKPKEQGYLKPEEVAEAVKYLLRLPKDVRVEELMLRSIYQKPEY | soluble |
| MSPWQHYQKDLTRDGFSHDPAQEIAVKALQRVYEDLTAAEEPNSLFGKLFTSFGLTSAPAPTKGLYLWGGVGRGKTYLMDTFFDTLPGNQKLRAHFHRFMHQLHLDLDALKGTRDPLLVIAKQMAAKYRVICFDEFFVSDITDAMLLGTLFQALFKEGVVLVATSNIIPDDLYKNGLQRARFLPAIALINQHCEVLNVDSGIDYRLRTLEQAEIYHHPLDEQADTNLLRYFGQLAPEAEISTEAIEIEGRAISIRQQAQGVLLADFRALCDGPRSQRDYMELARIYHTVLVSGIEQMGAFLTGDDIARRFLAMVDEFYERNVKLIVSAQVPLEDIYADGLLSFEFRRCRSRLIEMQSHDYLKSEHLPLEHHHHHH | not soluble |
| MAHHHHHHASVGRFVQTADPAVTALESPPLPTETRLWRQSPDCQSESDSNRVSGSVLDSVKSNGGPKHASTARLHASQDLPTSVTRFLCLSSSSNSAAAKDLRRQLLVVRDCCVALGNKVKGSELLLLGGSQLSRKVEAMADFNSCLGVIFAASLTFTGETEGVAKDTLCSVVEMLKSAQESGDEKVFRAAVVKIVNRILLCTPLRPPARNAAKETARKSAGKQEQHAEQEPKLEDECLDFLTVEDGVPVLLECVWKRWLRYFEDGYVRYVKKLMAEERQALEAAAAAAAADDYNGEEAQYVDGVSATTTQTISTVPLFTTCQDYWKSPASAYAQFCYILLAIFFVRTKDFSLNYLARVTKLVQYFTYQLEFEDGEPIAVRTDTDAEEDSAQSEDEDDDRTPPQQEGPRKEKQVHSLPMPEYDKAVTQRRFRMSRRSSSQGLVPTVVSFKKAEKPRRHCHKCFFTDALPGDLRPSVEAVRQEEAEAAARDSEEHSHLPVVRRSANLDLSEHSISPQREREQLDACDASMESVQGV | soluble |
| STQESTQCHRSYLLPSGNSVTLSESTAIVSHGTTGLVTWDAALYLAEWAIENPAAFTDRTILELGSGAGLTGLAICKACCPRAYIFSDCHAQVLEQLRGNVLLNGFSLEPHTPIDAGSSKVTVAQLDWDEVTASQLSAFQADVVIAADVLYCWEMTLSLVRVLKMLEDCQRKSAPDVYVAYTIRSQDTGKLFIEELDRAGIYWEEVPPHTGKLFPYEEHSAIVILKLVLTSRHGV | soluble |
| MLSVAGHRFASLATTPVLRMGLARCFSSVTGPFQCPPLPYVKNALEPHMSAETLTYHHDKHHQTYVDTLNSIAAENSTIASKTLEQIIKTETGKPFNQAAQVYNHTFFFNNLAPNGGGEPTGKIAELITRDFGSFEKFKEDFSAAAVGHFGSGWVWLIADDGKLKIVQGHDAGNPIRESKTPLMNIDVWEHAYYIDYRNARAQYVKNYWNLVNWDFVNDNVAKAGI | soluble |
| MGSDKIHHHHHHMKMTDPLYGTFEIEPVLAELIQSPLVSRLAHVHQGGSSYLVNPLWDLSRLDHSIGVMLFIRKFGGSLEEQIAGLLHDVSHTAFSHVVDYALDFEEEDYHEQIFEDFVKTSTIPAILEKYGYSFEGIFDDISKWKILEQEAPELCADRIDYTLQDLYRHRKISLAEVEEFLQALVMVDGRLYLANIALAEWFVAQYYSEVIDYFYDPLNVYSYEILAEAMRIAFQQETITTADLRLTDTELLAKLNANSDAREKIQLLASAHLEENEADFTYHHKKKMRLINPSILVDGRLIPADELSEKVRKMNDWASERSKHGIYIKATKKSKQ | not soluble |
| MGSDKIHHHHHHMTKHMTMKTPPIVSRQEWDAAREKMLVKEKATLRAKDALAAERRRMPWMEVDKAYVFEGPNGKASLLDLFEGRRQLIVYRAFFEPGVYGWPDHACRGCSLGADQVGHLAHLNARNTTLAYASRAPQADIVRLKARMGWEMPWYTITDSFDKDFGVDEWHGHNVFIHDGDRVFRTYLINSRGDEQMGTVWSYLDATPLGRQEIWEDSPEGYPQTPLYSWWNWHDNYEAGADKKWAEVAAAGEAAFRDKGE | not soluble |
| MSFESNQLMPIAALRGGPGTPAADVLTAFALRRKAEGIDVVGVIVPPEDAGSGHQGHGHGEGHGGGHEGCECRSELIDIATGDRYAMHQDLGSGSQACNLNSSSLALAAGAVERAVARKPALVVLSRFGGQEAVRGGLMSAFQAAIAAGVPVACVVTPKAEDVWNDFAQGLSVSLPPEADALEAWWRDHARGRNAALEHHHHHH | not soluble |
| MSLSGMELSYRRSDLIFKRPAGTSRGVLTSKPTWFVRLDIDGHGGQGEVSLIPGLSLDPEEQIGRELDLLARRLRAEEPIRLRQFLAERGGADFSDYRSVLTDIAGILDSWQVSTDGRFPALRFALEMALLDLLSGGRQEWFASDFTRGEKRIPVNGLIWMGEAAFMQEQIEAKLAEGYGCLKLKIGAIDFDKECALLAGIRESFSPQQLEIRVDANGAFSPANAPQRLKRLSQFHLHSIEQPIRQHQWSEMAALCANSPLAIALDEELIGLGAEQRSAMLDAIRPQYIILKPSLLGGFHYAGQWIELARERGIGFWITSALESNLGLAAIAQWTALYQPTMPQGLGTGQLYTNNLPSNLAVDGGLLGVSEGHHHHHH | soluble |
| MTEKEKMLAEKWYDANFDQYLINERARAKDICFELNHTRPSATNKRKELIDQLFQTTTDNVSISIPFDTDYGWNVKLGKNVYVNTNCYFMDGGQITIGDNVFIGPNCGFYTATHPLNFHHRNEGFEKAGPIHIGSNTWFGGHVAVLPGVTIGEGSVIGAGSVVTKDIPPHSLAVGNPCKVVRKIDNDLPSETLNDETIK | soluble |
| MELNWALFYGLCPSIKMAHVFDKDEIMGLFESFRKARAKTKAEIKAAKVKARQEVKDATKLEIKRNKLLAQQEKALLKEERKGLKAKRKHEEKLAKTTLEQLKAGKFNKDNVLRYAGAARTLAPIVLPLIYRGITLAKEQANTKRALRLGIDPSDLARFAGHGAELKARIEGIRGSVKVSSLPKGFVADVEQRLDDLTFAVDNAEYMTPELRQRSHRSIANDLDQLARQIQDKIGE | not soluble |
| MRYTDSRKLTPETDANHKTASPQPIRRISSQTLLGPDGKLIIDHDGQEYLLRKTQAGKLLLTK | soluble |
| MGSDKIHHHHHHVVVMSKVLLNIGCADVDKPGYINVDARKTKVTHLVSNAWDLDCFEENSVHEIYSRHMLEHLNPEYAKLALQKWFYILEPEGKLVVIVPDIEFHARQLLGVSRSSFGDQMEHAFAGFWGWREKERGGSDFDAHQWGYTVATLENEIGAVGFERIERVVEGVDSEPWHLQMTARKPMTSLCCPMDFRGPFP | not soluble |
| SENLYFQGSASATCERCKGGFAPAEKIVNSNGELYHEQCFVCAQCFQQFPEGLFYEFEGRKYCEHDFQMLFA | soluble |
